Data published in patent publication US8889130B2, “Treatment of osteoarthritis and pain” (Abbvie Inc., priority 2011, dated 2014).
Each block holds one molecule with its values, some of them ahead of it.

Assays:
hIL-1α [1] = target: T1, hIL-1α (Homo sapiens, UniProt P01583); assay: MRC-5 bioassay: neutralization of hIL-1α-induced IL-8 production; assay type: cell-based; conditions: for IC50: antigen hIL-1α, read-out: Potency IC50
T1 sequence (P01583 113-271): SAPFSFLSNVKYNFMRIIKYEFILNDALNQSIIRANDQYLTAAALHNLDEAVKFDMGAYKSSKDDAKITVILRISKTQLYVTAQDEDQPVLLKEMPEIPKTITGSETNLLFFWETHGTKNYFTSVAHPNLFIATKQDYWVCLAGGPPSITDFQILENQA
Protocol: The MRC-5 cell line is a human lung fibroblast cell line that produces IL-8 in response to human IL-1α and IL-1β in a dose-dependent manner (see, Dinarello, Muegge, and Durum (2000) Curr. Protocols Immunol. 6:1). MRC-5 cells were cultured in 10% FBS complete MEM and grown at 37° C. in a 5% CO2 incubator. […] The supernatants were harvested, diluted, and IL-8 concentrations measured by ELISA using a standard IL-8 ELISA kit (R&D Systems). Antibody potency was determined by its ability to inhibit IL-8 production by MRC-5 cells.
(§1) The biological activity of DVD-Ig was measured using MRC-5 bioassay. The MRC-5 cell line is a human lung fibroblast cell line that produces IL-8 in response to human IL-1α and IL-1β in a dose-dependent manner. MRC-5 cells were obtained from ATCC and cultured in 10% FBS complete MEM at 37° C. in a 5% CO2 incubator. To determine neutralizing activity of the DVD-Ig against human IL-1α or IL-1β, 50 μl of antibody (1×10^−7 to 1×10^−12 M) in MEM/10% FBS was added to a 96 well plate and pre-incubated with 50 μl of hIL-1α or hIL-1β (200 pg/ml) for 1 hour at 37° C., 5% CO2. MRC-5 cells at a concentration of 1×10^5/ml were then added (100 μl) to all wells, and the plates were incubated overnight at 37° C. in a 5% CO2 incubator. The supernatants were harvested and human IL-8 production measured by standard ELISA (R&D Systems, Minneapolis, Minn.). Neutralizing activity of the DVD-Ig binding protein was determined by its ability to inhibit IL-8 production.

both IL-1α and IL-1β = assay: MRC-5 assay in the presence of both IL-1α and IL-1β (IL-8 synthesis); assay type: cell-based, human; conditions: equal amounts of hIL-1α and hIL-1β in the same culture; read-out: dual-inhibition activity (IL-8 synthesis by MRC-5 cells)
Protocol: as §1
To determine if DVD-Ig binding protein was able to inhibit IL-8 production in the presence of both IL-1α and IL-1β, equal amounts of hIL-1α and hIL-1β were added in the same culture system of MRC-5 assay. […]

hIL-1α [2] = target: T1, hIL-1α; assay: Tetravalent dual-specific antigen binding by Biacore (sequential antigen injection), hIL-1α; conditions: for Response Unit, 1st antigen hIL-1α: hIL-1α injected as 1st antigen on captured DVD-Ig; for Response Unit, 2nd antigen hIL-1α: hIL-1α injected as 2nd antigen after hIL-1β
Protocol: (§2) The kinetics of DVD-Ig molecules binding to rhIL1-α and rhIL1-β was determined by surface plasmon resonance-based measurements with a Biacore 3000 instrument (Biacore AB, Uppsala, Sweden) using HBS-EP (10 mM HEPES, pH 7.4, 150 mM NaCl, 3 mM EDTA, and 0.005% surfactant P20) at 25° C. All chemicals were obtained from Biacore AB (Uppsala, Sweden) or otherwise from a different source as described herein. Approximately, 5000 RU of goat anti-human IgG Fcγ fragment specific polyclonal antibody (Pierce Biotechnology Inc, Rockford, Ill.) diluted in 10 mM sodium acetate (pH 4.5) was directly immobilized across a CM5 research grade biosensor chip using a standard amine coupling kit according to manufacturer's instructions and procedures at […]. Unreacted moieties on the biosensor surface were blocked with ethanolamine. Modified carboxymethyl dextran surface in flowcell 2 and 4 was used as a reaction surface. Unmodified carboxymethyl dextran without goat anti-human IgG in flow cell 1 and 3 was used as the reference surface. For kinetic analysis, rate equations derived from the 1:1 Langmuir binding model were fitted simultaneously to association and dissociation phases of all ten injections (using global fit analysis) using the Bioevaluation 4.0.1 software. Purified DVD-Ig samples were diluted in HEPES-buffered saline for capture across goat anti-human IgG Fc specific reaction surfaces and injected over reaction matrices at a flow rate of […]. The association and dissociation rate constants, kon (M-1s-1) and koff (s-1) were determined under a continuous flow rate of […]. Rate constants were derived by making kinetic binding measurements at ten different antigen concentrations ranging from 1.25 to 1000 nM. The equilibrium dissociation constant (M) of the reaction between DVD-Ig molecule and rhIL1α/β was then calculated from the kinetic rate constants by the following formula: KD=koff/kon. Aliquots of rhIL1α/β samples were also simultaneously injected over a blank reference and reaction CM surface to record and subtract any nonspecific binding background to eliminate the majority of the refractive index change and injection noise. Surfaces were regenerated with two subsequent […] injections of 10 mM Glycine (pH 1.5) at a flow rate of […]. The anti-Fc antibody immobilized surfaces were completely regenerated and retained their full capture capacity over twelve cycles. The apparent stoichiometry of the captured DVD-Ig-rhIL1α/β complex was calculated under saturating binding conditions (steady-state equilibrium) using the following formula: […]
(§3) In addition, tetravalent dual-specific antigen binding of DVD-Ig binding protein was also analyzed by Biacore (Table 14). DVD-Ig binding protein was first captured via a goat anti-human Fc antibody on the Biacore sensor chip, and the first antigen was injected and a binding signal observed. As the DVD-Ig binding protein was saturated by the first antigen, the second antigen was then injected and the second signal observed. This was done either by first injecting IL-1β then IL-1α or by first injecting IL-1α followed by IL-1β for DVD2-Ig binding protein. In either sequence, a dual-binding activity was detected. Similar results were obtained for DVD1-Ig binding protein. Thus, each DVD-Ig binding protein was able to bind both antigens simultaneously as a dual-specific tetravalent molecule. […] Upon the injection of the second antigen, while DVD-Ig binding protein was already occupied by the first antigen, the stoichiometry of both DVD-Igs binding protein to the second antigen (i.e., hIL-1α or hIL-1β was between 1.0 and 1.3. Thus, DVD-Ig binding protein was able to bind two IL-1α and two IL-β molecules. DVD-Ig binding protein was first captured via a goat anti-human Fc antibody on the Biacore sensor chip, and the first antigen was injected and a binding signal observed, followed by the injection of the second antigen.

hIL-1β = hIL-1β (Homo sapiens, UniProt P01584); assay: Tetravalent dual-specific antigen binding by Biacore (sequential antigen injection), hIL-1β; conditions: for Response Unit, 1st antigen hIL-1β: hIL-1β injected as 1st antigen on captured DVD-Ig; for Response Unit, 2nd antigen hIL-1β: hIL-1β injected as 2nd antigen after hIL-1α
Protocol: as §2, §3

[3] = hIL-1α injected as 2nd antigen, DVD-Ig already saturated with hIL-1β
[4] = hIL-1β injected as 2nd antigen, DVD-Ig already saturated with hIL-1α

Sequence of hIL-1β (P01584 117-269): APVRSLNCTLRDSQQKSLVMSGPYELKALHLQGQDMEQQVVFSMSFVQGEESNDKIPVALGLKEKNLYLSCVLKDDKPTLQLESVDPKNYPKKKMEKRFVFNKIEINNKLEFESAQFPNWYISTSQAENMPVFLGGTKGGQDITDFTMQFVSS

neutralizing activity against hIL-1α, fold less than that of the chimeric antibodies (hIL-1α [1]): 3 fold
IC50 (hIL-1α [1]): 2.9 nM
Stoichiometry hIL-1α:DVD-Ig (hIL-1α [2]; hIL-1α injected as 1st antigen): 1.8
Response Unit, 1st antigen hIL-1α (hIL-1α [2]): 209 Response Unit
Response Unit, 2nd antigen hIL-1α (hIL-1α [2]): hIL-1α: 131 Response Unit
Stoichiometry hIL-1α:DVD-Ig (hIL-1α [2]; [3]): 1.2
Response Unit, 1st antigen hIL-1β (hIL-1β): 159 Response Unit
Response Unit, 2nd antigen hIL-1β (hIL-1β): hIL-1β: 137 Response Unit
Stoichiometry hIL-1β:DVD-Ig (hIL-1β; [4]): 1.3
B1: DVD2-Ig: DVD-Ig as DVD1-Ig but with linkers ADAAP (light chain) and AKTTPP (heavy chain) (antibody)
VH: MQLSGLTSEDSAMYFCVRFPTGNDYYAMDYWGQGTSVTVSSAKTTPPQIQLVQSGPELKKPGETVKISCKASGYTFRNYGMNWVKQAPGKDLKRMAWINTYTGESTYADDFKGRFAFSLETSASTAYLQINNLKNEDTATYFCARGIYYYGSSYAMDYWGQGTSVTVSS
VL: PVEADDAATYYCQQNNEDPFTFGSGTKLEIKRADAAPNIQMTQTTSSLSASLGDRVTISCRASQDISNCLNWYQQKPDGTVKLLIYYTSRLHSGVPSRFSGSGSGTDYSLTISNLEQEDIATYFCQQGKTLPYAFGGGTKLEINR
IC50 (both IL-1α and IL-1β): 1.2 nM

neutralizing activity against hIL-1α, fold less than that of the chimeric antibodies (hIL-1α [1]): 3 fold
IC50 (hIL-1α [1]): 2.3 nM
Stoichiometry hIL-1α:DVD-Ig (hIL-1α [2]; hIL-1α injected as 1st antigen): 2.3
Response Unit, 1st antigen hIL-1α (hIL-1α [2]): 190 Response Unit
Response Unit, 2nd antigen hIL-1α (hIL-1α [2]): hIL-1α: 107 Response Unit
Stoichiometry hIL-1α:DVD-Ig (hIL-1α [2]; [3]): 1.1
Stoichiometry hIL-1β:DVD-Ig (hIL-1β; hIL-1β injected as 1st antigen): 1.5
Response Unit, 1st antigen hIL-1β (hIL-1β): 141 Response Unit
Response Unit, 2nd antigen hIL-1β (hIL-1β): hIL-1β: 75 Response Unit
Stoichiometry hIL-1β:DVD-Ig (hIL-1β; [4]): 1.0
B2: DVD1-Ig: DVD-Ig binding hIL-1α and hIL-1β; VH/VL of 13F5.G5 fused directly to N-terminus of 3D12.E3 VH/VL, no linker (antibody)
VH: MQLSGLTSEDSAMYFCVRFPTGNDYYAMDYWGQGTSVTVSSQIQLVQSGPELKKPGETVKISCKASGYTFRNYGMNWVKQAPGKDLKRMAWINTYTGESTYADDFKGRFAFSLETSASTAYLQINNLKNEDTATYFCARGIYYYGSSYAMDYWGQGTSVTVSS
VL: PVEADDAATYYCQQNNEDPFTFGSGTKLEIKRNIQMTQTTSSLSASLGDRVTISCRASQDISNCLNWYQQKPDGTVKLLIYYTSRLHSGVPSRFSGSGSGTDYSLTISNLEQEDIATYFCQQGKTLPYAFGGGTKLEINRR
IC50 (both IL-1α and IL-1β): 2.2 nM
